Patent US20170137467A1 (CHROMOTEK, published 2017)
Ends that are not written are not given here.

Key:
β-catenin peptide 29-43 = target: T1, β-catenin peptide 29-43 (human, UniProt P35222); experiment: pepscan: 15-mer peptide on OVA-microspheres, biotinylated BC2-Nb, streptavidin-PE
T1 construct: synthetic 15-mer; additional N-terminal cysteine for coupling; also called Start 29 End 43
T1 peptide (looked up): SYLDSGIHSGATTTA
Excerpt: (§1) As negative controls, microspheres comprising Ovalbumin and the Myc-peptide ([…]) covalently coupled to OVA-microspheres were used. […] Evaluation of the PE-signals were done in a Flexmap 3D (Luminex).

[1] = target: T2, β-catenin peptide 101-115 (human, UniProt P35222); experiment: as above
T2 construct: synthetic 15-mer; additional N-terminal cysteine for coupling
T2 peptide (looked up): ETLDEGMQIPSTQFD
Excerpt: as §1

AMEPDRKAAVSHWQQ = target: T3, AMEPDRKAAVSHWQQ (also: coupled via added N-terminal Cys to OVA-microspheres); experiment: as above
T3 construct: also called β-catenin peptide Start 13 End 27
T3 peptide: CAMEPDRKAAVSHWQQ
Excerpt: as §1

β-catenin peptide 9-23 = target: T4, β-catenin peptide 9-23 (human, UniProt P35222); experiment: as above
T4 construct: synthetic 15-mer; additional N-terminal cysteine for coupling; also called Start 9 End 23
T4 peptide (looked up): ELDMAMEPDRKAAVS
Excerpt: as §1

β-catenin peptide 61-75 = target: T5, β-catenin peptide 61-75 (human, UniProt P35222); experiment: as above
T5 construct: synthetic 15-mer; additional N-terminal cysteine for coupling; also called Start 61 End 75
T5 peptide (looked up): QVLYEWEQGFSQSFT
Excerpt: as §1

β-catenin peptide 5-19 = target: T6, β-catenin peptide 5-19 (human, UniProt P35222); experiment: as above
T6 construct: synthetic 15-mer; additional N-terminal cysteine for coupling; also called Start 5 End 19
T6 peptide (looked up): ADLMELDMAMEPDRK
Excerpt: as §1

β-catenin peptide 37-51 = target: T7, β-catenin peptide 37-51 (human, UniProt P35222); experiment: as above
T7 construct: synthetic 15-mer; additional N-terminal cysteine for coupling; also called Start 37 End 51
T7 peptide (looked up): SGATTTAPSLSGKGN
Excerpt: as §1

[2] = target: T8, recombinant human β-catenin, full-length (human, UniProt P35222 1-781, limits assumed); experiment: SPR (Biacore 3000), recombinant β-catenin immobilized, five Nb concentrations, 1:1 Langmuir
T8 construct: Purified from E. coli; also called full-length β-catenin
T8 sequence (looked up): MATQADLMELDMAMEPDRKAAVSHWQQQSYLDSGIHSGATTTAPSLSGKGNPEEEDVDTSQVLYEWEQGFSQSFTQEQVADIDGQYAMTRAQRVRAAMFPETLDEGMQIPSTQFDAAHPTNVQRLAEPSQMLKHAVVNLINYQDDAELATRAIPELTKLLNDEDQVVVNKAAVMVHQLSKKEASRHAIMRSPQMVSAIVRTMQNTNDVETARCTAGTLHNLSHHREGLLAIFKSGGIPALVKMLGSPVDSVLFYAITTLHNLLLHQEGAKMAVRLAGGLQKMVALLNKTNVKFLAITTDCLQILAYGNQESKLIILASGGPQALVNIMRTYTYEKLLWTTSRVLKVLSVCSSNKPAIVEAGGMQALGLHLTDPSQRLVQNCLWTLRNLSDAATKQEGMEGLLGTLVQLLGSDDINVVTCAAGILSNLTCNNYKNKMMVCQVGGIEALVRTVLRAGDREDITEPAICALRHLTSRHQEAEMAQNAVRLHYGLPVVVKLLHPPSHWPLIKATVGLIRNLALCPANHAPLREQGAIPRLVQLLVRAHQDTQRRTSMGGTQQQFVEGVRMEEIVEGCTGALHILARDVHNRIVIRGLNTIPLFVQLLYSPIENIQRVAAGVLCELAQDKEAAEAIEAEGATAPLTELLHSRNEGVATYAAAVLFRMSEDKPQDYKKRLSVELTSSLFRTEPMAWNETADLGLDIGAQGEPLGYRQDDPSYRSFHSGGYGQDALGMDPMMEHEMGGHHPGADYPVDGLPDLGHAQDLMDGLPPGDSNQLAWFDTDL
Protocol: The dissociation was induced by two injections of regeneration solution of 15 μl each at the identical flow rates.

BC2T H9P library peptide = target: T9, BC2T H9P library peptide (human); experiment: peptide library pulldown on immobilized Nb, LC-MS of supernatant; ratio vs GFP-Nb control (1 = not captured, 0 = captured)
T9 peptide: Ac-PDRKAAVSPWQQ-NH2
Summary of the method: (§2)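 Unbound peptide left in supernatant after 1 h pulldown in PBS/0.01% CHAPS measured by reversed-phase LC-MS (8–30% eluent B gradient, 20 min).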

[3] = target: T10, BC2T Q12(I/L) library peptide, version 2 (N-terminal acetyl, C-terminal amide); experiment: as above
T10 construct: Ile and Leu versions are isobaric; two versions resolved but not assigned; also called I/L2
Summary of the method: as §2

[4] = target: T11, BC2T Q11H library peptide (human); experiment: as above
T11 peptide: Ac-PDRKAAVSHWHQ-NH2
Summary of the method: as §2

B1: BC2 nanobody (VHH)
VHH: QVQLVESGGGLVQPGGSLTLSCTASGFTLDHYDIGWFRQAPGKEREGVSCINNSDDDTYYADSVKGRFTIFMDNAKDTVYLQMNSLKPEDTAIYYCAEARGCKRGRYEYDFWGQGTQVTVSS
notes: Alpaca VHH, 122 aa; also called BC2-Nb; BC2 nanotrap (BC2-Nb immobilized on agarose/Sepharose beads); not shown: C-terminal 6xHis-tag added by the pHEN6 vector
B1: no binding (tested: 1 µg/ml BC2-Nb) (β-catenin peptide 29-43); no binding (tested: 1 µg/ml BC2-Nb) [1]; binds (AMEPDRKAAVSHWQQ). B1: no binding (tested: 1 µg/ml BC2-Nb) (β-catenin peptide 9-23); no binding (tested: 1 µg/ml BC2-Nb) (β-catenin peptide 61-75); no binding (tested: 1 µg/ml BC2-Nb) (β-catenin peptide 5-19). The binding result (β-catenin peptide 37-51) was “no binding (tested: 1 µg/ml BC2-Nb)” and the Kd [2] was roughly 3.1 nM.

B2: BC2-Nb(R106E) (VHH)
VHH: QVQLVESGGGLVQPGGSLTLSCTASGFTLDHYDIGWFRQAPGKEREGVSCINNSDDDTYYADSVKGRFTIFMDNAKDTVYLQMNSLKPEDTAIYYCAEARGCKRGEYEYDFWGQGTQVTVSS
notes: Headlock mutant; immobilized on beads in the library pulldown
B2 was tested, and the ratio (BC2T H9P library peptide) was 0.9, the ratio [3] was 0.1 and the ratio [4] was 0.2.
